Test results: the emibetuzumab library of Makowski et al. (2022)

B1: VH:VL chains; a variant is named by its letters at X, in order (parent)
chain 1: QVQLVQSGAEVKKPGASVKVSCKASGYTFTDYXMHWVRQAPGQGLEWMGXVNPNXXXTTYNQKFEGRVTMTTDTSTSTAYMELRSLRSDDTAVYYCARXNXLDXWGQGTTVTVSS
chain 2: DIQMTQSPSSLSASVGDRVTITCSVSSSVSSIYLHWYQQKPGKAPKLLIYSTSNLASGVPSRFSGSGSGTDFTLTISSLQPEDFATYYCQVYSGYPLTFGGGTKVEIK

Variants of: B1
Experiment: yeast display scFab, FACS + sequencing
In short: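 The non-specific binding call was based on sorted and sequenced yeast displaying a heavy-chain CDR mutant scFab library. Labelling used anti-Myc with biotinylated ovalbumin (260 μg/mL in PBSB, 3 h, room temperature) or soluble membrane proteins (130 μg/mL, 20 min on ice), and FACS collected the top 25% and bottom 10% of binders in two replicates. Positive meant present in ≥3 of 4 pooled positive samples and in no negatives, and negative meant the converse.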

Variant | non-specific binding call
FGAAAVGD | binds
YGAAGSAA | binds
FGAATDGV | binds
VGAEDDVA | no binding
VGAEGVWS chain 1 G66S | binds
YGAGDFGA | binds
SGAGDYSD | binds
DGAKGDGV | no binding
YGAKGDGV | no binding
FGAKGSSS | binds
FGAKTASF | no binding
YGARGAAF | binds
DGARGALF | binds
DGARNAAA | no binding
YGARNAAV | binds
DGARNAGV | no binding
DGARNFGV | no binding
DGARNSGV | no binding
VGARNSGV | no binding
VGATSFSA | binds
FGATSFSV | binds
YGATSSLA | binds
VGATSVSF | binds

Variant | non-specific binding call
FGATSVSF | binds
FGEEDFSS chain 1 W105R | binds
SGEEGSGA | binds
SGEGGAAV | no binding
SGEGGAGA | no binding
SGEGGAVA | no binding
VGEGGDAY | no binding
DGEGGDWD | binds
AGEGNSWA | no binding
SGEGNSWA | no binding
VGEKGDGV | no binding
DGERDYSD | binds
AGERNVAS | binds
DGERTAGV | no binding
SGETGDSV | no binding
YGETGDSV | no binding
YGETGFGS | binds
AGETGFSA | binds
YGETGFWY | binds
VGETSYVD | binds
DGGADVGA | binds
FGGEGDGA | binds
DGGEGVVY | binds

Variant | non-specific binding call
DGGENAGD | no binding
AGGENDGD | no binding
FGGENDGD | no binding
DGGENDVF | no binding
DGGENDVY | no binding
VGGGAAGF | no binding
VGGGAAGV | no binding
VGGGADGA | no binding
VGGGADGV | no binding
VGGGADVA | no binding
VGGGASGV | no binding
DGGGASSA | no binding
VGGGGAAD | no binding
YGGGGASV | binds
YGGGGAVA | no binding
VGGGGDGS | no binding
YGGGGDVV | no binding
YGGGGVAA | binds
DGGGGYWF | binds
AGGGNAGD | no binding
VGGGNAGD | no binding
AGGGNDGA | no binding
AGGGNDGV | no binding

Variant | non-specific binding call
VGGGNDLA chain 1 R87K | no binding
SGGGNDLA chain 1 R87K | no binding
DGGGNDLA chain 1 R87K | no binding
DGGGNDLV | no binding
AGGGNDVV | no binding
AGGGNDVY | no binding
AGGGNDWV | no binding
AGGGNSGV | no binding
DGGGNVSD | no binding
DGGKGAVD | binds
DGGKNAGD | no binding
DGGKNAGV | no binding
DGGKNAVA | no binding
DGGKNAVV | no binding
DGGKNDAV | no binding
DGGKNDGD | no binding
DGGKNDGS | no binding
DGGKNDGV | no binding
DGGKNDLA | no binding
DGGKNDVV | no binding
DGGKNDWV | no binding
DGGKNSVD | no binding
VGGKNSVD | no binding

Variant | non-specific binding call
SGGKNSVD | no binding
YGGKNSVD | no binding
YGGRAAGA | binds
VGGRADGF | binds
YGGRADVY | no binding
DGGRAFWF | binds
SGGRDSGV | binds
YGGRGAVA | no binding
YGGRGDAD | no binding
DGGRGDAF | no binding
DGGRGDGA | no binding
VGGRGDGS | no binding
AGGRGDVD | no binding
DGGRGDVV | no binding
YGGRGDWV | no binding
YGGRGSWV | no binding
YGGRGYAV | binds
DGGRSAVF | no binding
AGGRSFVF | binds
SGGRTYGV | binds
VGGTDFVA | no binding
VGGTGDVF | no binding
